According to the supplement of paper PMC9732359:
± gives the uncertainty stated by the source.

Experiment: protein stability index of a GFP-peptide fusion (yeast GPS) (PSI 1-4); higher = more stable; sorted into four equal gates, so the index is relative within each strain
Outline: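 Each library plasmid carries Cherry plus GFP with a tiled 17-residue yeast protein peptide fused downstream, and the pooled library was carried in yeast. Mid-log cultures in leucine-free medium were sorted into four equal gates by GFP/Cherry ratio. Reads from Illumina sequencing of PCR-amplified plasmids from each gate were assigned to strains by barcodes. Per peptide, the protein stability index was computed as the summed products of gate read frequency and gate number.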

NTQPSASGFGFGGSQPN [YGR119C/NUP57]
protein stability index (doa10∆): 3.18 ± 0.18
protein stability index (pdr5∆): 2.72 ± 0.15
protein stability index (san1∆): 2.84 ± 0.12
protein stability index (ubr1∆): 2.77 ± 0.13

NTTVISDKQRRLLAKDA [DIS3]
protein stability index (doa10∆): 2.37 ± 0.051
protein stability index (pdr5∆): 2.23 ± 0.045
protein stability index (san1∆): 2.06 ± 0.066
protein stability index (ubr1∆): 2.18 ± 0.045

NVDKNLNEIKEHKIVVL [RPN14]
protein stability index (doa10∆): 2.39 ± 0.085
protein stability index (pdr5∆): 2.38 ± 0.069
protein stability index (san1∆): 2.42 ± 0.1
protein stability index (ubr1∆): 2.74 ± 0.1

NVEESVSKADILLSHHR [POP5]
protein stability index (doa10∆): 3.16 ± 0.19
protein stability index (san1∆): 2.91 ± 0.086
protein stability index (ubr1∆): 3.03 ± 0.1

NVFNDTPRGNHWMGSSV [YMR129W/POM152]
protein stability index (doa10∆): 3.39 ± 0.11
protein stability index (pdr5∆): 3.46 ± 0.099
protein stability index (san1∆): 2.98 ± 0.075
protein stability index (ubr1∆): 3.12 ± 0.081

NVGTNTYRLGEWSKISV [POP1]
protein stability index (doa10∆): 1.97 ± 0.25
protein stability index (pdr5∆): 2.34 ± 0.12
protein stability index (san1∆): 2.69 ± 0.097
protein stability index (ubr1∆): 3.17 ± 0.12

NVKELWTEKKGKNVINR [SMD2]
protein stability index (doa10∆): 3.46 ± 0.22
protein stability index (san1∆): 3.54 ± 0.18
protein stability index (ubr1∆): 3.6 ± 0.11

NVLKAPFIKSESKPFSS [SIR4]
protein stability index (doa10∆): 2.65 ± 0.068
protein stability index (pdr5∆): 2.81 ± 0.088
protein stability index (san1∆): 2.6 ± 0.064
protein stability index (ubr1∆): 3.03 ± 0.059

NVMLNIYPRTVIDIEIH [SKI6]
protein stability index (doa10∆): 1.35 ± 0.039
protein stability index (pdr5∆): 1.74 ± 0.046
protein stability index (san1∆): 1.58 ± 0.11
protein stability index (ubr1∆): 1.76 ± 0.034

NVNLDDYPDDSGWTPFH [NAS6]
protein stability index (doa10∆): 3 ± 0.091
protein stability index (pdr5∆): 2.91 ± 0.069
protein stability index (san1∆): 2.92 ± 0.061
protein stability index (ubr1∆): 2.96 ± 0.066

NVRSSVLQKVIEWAEHH [SKP1]
protein stability index (doa10∆): 2.4 ± 0.096
protein stability index (pdr5∆): 2.91 ± 0.11
protein stability index (san1∆): 2.4 ± 0.085
protein stability index (ubr1∆): 2.03 ± 0.099

NVRVGQAVETVGQAGRP [RPN1]
protein stability index (doa10∆): 2.4 ± 0.11
protein stability index (pdr5∆): 3.14 ± 0.092
protein stability index (san1∆): 3.19 ± 0.072
protein stability index (ubr1∆): 3.02 ± 0.1

NVSDEQLSNWQKIRNSE [ITC1]
protein stability index (doa10∆): 3.15 ± 0.071
protein stability index (pdr5∆): 3.2 ± 0.095
protein stability index (san1∆): 2.94 ± 0.1
protein stability index (ubr1∆): 2.98 ± 0.087

NVSENQPWQMDTNNEAD [SNF12]
protein stability index (doa10∆): 3.11 ± 0.052
protein stability index (pdr5∆): 3.26 ± 0.064
protein stability index (san1∆): 3.17 ± 0.042
protein stability index (ubr1∆): 3.25 ± 0.04

NVTIAQGGVLPNIHQNL [HTA1]
protein stability index (doa10∆): 1.65 ± 0.05
protein stability index (pdr5∆): 1.48 ± 0.043
protein stability index (san1∆): 1.36 ± 0.066
protein stability index (ubr1∆): 1.46 ± 0.034

NVTTILDEIFSGCDSTK [ECM29]
protein stability index (doa10∆): 2.28 ± 0.12
protein stability index (pdr5∆): 2.8 ± 0.087
protein stability index (san1∆): 2.48 ± 0.073
protein stability index (ubr1∆): 2.63 ± 0.042

NVVEADLKRFVDESLLS [QCR2]
protein stability index (doa10∆): 3.14 ± 0.1
protein stability index (pdr5∆): 3.43 ± 0.1
protein stability index (san1∆): 3.26 ± 0.055
protein stability index (ubr1∆): 3.46 ± 0.051

NWRKQKGIDSVVRRRFR [RPL32]
protein stability index (doa10∆): 2.56 ± 0.1
protein stability index (pdr5∆): 2.66 ± 0.17
protein stability index (ubr1∆): 2.28 ± 0.18

NYGIVELDPECQLQNSD [RRP43]
protein stability index (doa10∆): 2.96 ± 0.075
protein stability index (pdr5∆): 3.01 ± 0.062
protein stability index (san1∆): 2.93 ± 0.054
protein stability index (ubr1∆): 3.02 ± 0.078

NYQYKIQELRKLLKSLL [MED7]
protein stability index (doa10∆): 1.43 ± 0.07
protein stability index (pdr5∆): 1.88 ± 0.095
protein stability index (san1∆): 2.28 ± 0.22
protein stability index (ubr1∆): 1.81 ± 0.072

PAAANLDALVDCENFFN [YJL039C/NUP192]
protein stability index (doa10∆): 2.71 ± 0.085
protein stability index (pdr5∆): 2.77 ± 0.08
protein stability index (san1∆): 2.64 ± 0.057
protein stability index (ubr1∆): 2.7 ± 0.093

PADRPQGRRNSRNFSTR [SIR4]
protein stability index (doa10∆): 3.02 ± 0.11
protein stability index (pdr5∆): 3.21 ± 0.074
protein stability index (san1∆): 3.1 ± 0.071
protein stability index (ubr1∆): 3.15 ± 0.074

PAKIVNFEKPKNSSQLL [RPN5]
protein stability index (doa10∆): 3.06 ± 0.075
protein stability index (pdr5∆): 3.2 ± 0.068
protein stability index (san1∆): 3.21 ± 0.052
protein stability index (ubr1∆): 3.2 ± 0.06

PAKPALSFGTATSDNKT [YJL041W/NSP1]
protein stability index (doa10∆): 3.05 ± 0.09
protein stability index (pdr5∆): 3.12 ± 0.072
protein stability index (san1∆): 2.93 ± 0.097
protein stability index (ubr1∆): 3.08 ± 0.048

PAKVAEEGINKFKKEKF [SRP54]
protein stability index (doa10∆): 3.2 ± 0.066
protein stability index (pdr5∆): 3.44 ± 0.059
protein stability index (san1∆): 3.38 ± 0.046
protein stability index (ubr1∆): 3.23 ± 0.057

PALESSPVTGDNSPSED [SNF2]
protein stability index (doa10∆): 3.25 ± 0.067
protein stability index (pdr5∆): 3.29 ± 0.066
protein stability index (san1∆): 3.14 ± 0.069
protein stability index (ubr1∆): 3.33 ± 0.041

PANVLLVQSLNDMVLEL [NNF1]
protein stability index (doa10∆): 2.67 ± 0.18
protein stability index (pdr5∆): 2.68 ± 0.17
protein stability index (san1∆): 2.83 ± 0.13
protein stability index (ubr1∆): 2.94 ± 0.057

PASKHDKEVVYFDEWTI [RPC34]
protein stability index (doa10∆): 3.27 ± 0.081
protein stability index (pdr5∆): 3.43 ± 0.065
protein stability index (san1∆): 3.04 ± 0.056
protein stability index (ubr1∆): 3.12 ± 0.082

PATTSQMAKDVTTFLNW [CYT1]
protein stability index (doa10∆): 3.16 ± 0.12
protein stability index (pdr5∆): 3.02 ± 0.13
protein stability index (san1∆): 2.84 ± 0.15
protein stability index (ubr1∆): 3.31 ± 0.27

PCLRKYEEFRDVAIENN [RRP43]
protein stability index (doa10∆): 2.73 ± 0.064
protein stability index (pdr5∆): 2.82 ± 0.065
protein stability index (san1∆): 2.9 ± 0.041
protein stability index (ubr1∆): 2.94 ± 0.047

PDDDKIVPLTEGDIQVL [RPT1]
protein stability index (doa10∆): 3.21 ± 0.097
protein stability index (pdr5∆): 3.22 ± 0.1
protein stability index (san1∆): 2.7 ± 0.07
protein stability index (ubr1∆): 3.01 ± 0.052

PDDMVEINSVGNPGLPQ [ITC1]
protein stability index (doa10∆): 2.85 ± 0.086
protein stability index (pdr5∆): 3.26 ± 0.04
protein stability index (san1∆): 3.05 ± 0.072
protein stability index (ubr1∆): 3.09 ± 0.06

PDEAIEKVFNAYPAARE [FAS1]
protein stability index (doa10∆): 2.94 ± 0.099
protein stability index (pdr5∆): 3.22 ± 0.1
protein stability index (san1∆): 3.11 ± 0.059
protein stability index (ubr1∆): 3.1 ± 0.093

PDISRAVINIRDDGKRE [RPO31]
protein stability index (doa10∆): 2.78 ± 0.083
protein stability index (pdr5∆): 2.29 ± 0.07
protein stability index (san1∆): 2.74 ± 0.11
protein stability index (ubr1∆): 2.77 ± 0.063

PDKLLGVILMFAAILVL [COB]
protein stability index (doa10∆): 1.63 ± 0.11
protein stability index (pdr5∆): 1.62 ± 0.11
protein stability index (san1∆): 1.66 ± 0.12
protein stability index (ubr1∆): 1.59 ± 0.11

PDSNHLSSETGIKLALD [SRB4]
protein stability index (doa10∆): 3.3 ± 0.087
protein stability index (pdr5∆): 3.35 ± 0.073
protein stability index (san1∆): 3.33 ± 0.058
protein stability index (ubr1∆): 3.37 ± 0.066

PDVLLSRVINVVRAASS [RRP6]
protein stability index (doa10∆): 1.26 ± 0.081
protein stability index (pdr5∆): 1.57 ± 0.066
protein stability index (san1∆): 1.44 ± 0.12
protein stability index (ubr1∆): 2.17 ± 0.13

PEDPYFNTLVRIMSTRC [DIS3]
protein stability index (doa10∆): 2.38 ± 0.093
protein stability index (pdr5∆): 2.72 ± 0.072
protein stability index (san1∆): 2.56 ± 0.052
protein stability index (ubr1∆): 1.92 ± 0.049

PEGYKAKSISTSAKEPS [RPO31]
protein stability index (doa10∆): 1.39 ± 0.085
protein stability index (pdr5∆): 1.51 ± 0.077
protein stability index (san1∆): 1.45 ± 0.19
protein stability index (ubr1∆): 1.86 ± 0.09

PELNVSLNLTDDVISNA [MCD1]
protein stability index (doa10∆): 3.09 ± 0.04
protein stability index (pdr5∆): 3.21 ± 0.042
protein stability index (san1∆): 3.1 ± 0.036
protein stability index (ubr1∆): 3.15 ± 0.032

PEVSMIRDIREKELKIF [RPB2]
protein stability index (doa10∆): 3.13 ± 0.15
protein stability index (pdr5∆): 2.41 ± 0.084
protein stability index (san1∆): 3.38 ± 0.075
protein stability index (ubr1∆): 2.69 ± 0.13

PEWMILTCLPVPPPPVR [RPO21]
protein stability index (pdr5∆): 3.52 ± 0.17

PFKRKMLLVDIIPSRMG [REC8]
protein stability index (doa10∆): 1.81 ± 0.069
protein stability index (pdr5∆): 1.77 ± 0.072
protein stability index (san1∆): 2.26 ± 0.11
protein stability index (ubr1∆): 2.15 ± 0.059

PFNQGSKQDVEALIEFI [FAS2]
protein stability index (doa10∆): 3.08 ± 0.073
protein stability index (pdr5∆): 3.15 ± 0.076
protein stability index (san1∆): 3.01 ± 0.079
protein stability index (ubr1∆): 3.08 ± 0.061

PFSLTYVRTEETDGKHG [YMR129W/POM152]
protein stability index (doa10∆): 3.13 ± 0.14
protein stability index (pdr5∆): 3.28 ± 0.096
protein stability index (san1∆): 3 ± 0.074
protein stability index (ubr1∆): 3.19 ± 0.069

PGEFVTAIAHSIREQVH [SNF5]
protein stability index (doa10∆): 2.27 ± 0.08
protein stability index (pdr5∆): 2.13 ± 0.047
protein stability index (san1∆): 1.94 ± 0.054
protein stability index (ubr1∆): 2.29 ± 0.047

PGGILRAQHVKKLATRP [RPL34A]
protein stability index (doa10∆): 3.04 ± 0.24
protein stability index (pdr5∆): 3.39 ± 0.21
protein stability index (san1∆): 3.37 ± 0.16
protein stability index (ubr1∆): 3.02 ± 0.14

PGRKYTTLGKLSTSVGW [RPL16A]
protein stability index (doa10∆): 2.92 ± 0.089
protein stability index (pdr5∆): 2.78 ± 0.092
protein stability index (san1∆): 2.2 ± 0.23
protein stability index (ubr1∆): 2.47 ± 0.091

PGSVEEVDKSKLITTYI [YDL116W/NUP84]
protein stability index (doa10∆): 3.39 ± 0.18
protein stability index (pdr5∆): 3.33 ± 0.26
protein stability index (ubr1∆): 3.42 ± 0.18

PHATATEKEPVPAVVDD [SNF6]
protein stability index (doa10∆): 3.24 ± 0.11
protein stability index (pdr5∆): 3.08 ± 0.068
protein stability index (san1∆): 2.82 ± 0.14
protein stability index (ubr1∆): 3.18 ± 0.087

PHIIAVACLFITISIHG [SSN8]
protein stability index (doa10∆): 1.17 ± 0.055
protein stability index (pdr5∆): 1.3 ± 0.049
protein stability index (san1∆): 1.34 ± 0.11
protein stability index (ubr1∆): 1.47 ± 0.062

PHNSKSLGFLQQSNKLH [RPN3]
protein stability index (doa10∆): 3.11 ± 0.059
protein stability index (pdr5∆): 3.07 ± 0.072
protein stability index (san1∆): 3.1 ± 0.053
protein stability index (ubr1∆): 3.26 ± 0.055
